According to PMC11952658:
Each block holds one substance with its values, some of them ahead of it.

Key:
[1] = target: N-terminal tagged Halo635 LIG3α (DNA Ligase 3α, nuclear, wild type); experiment: single-molecule fluorescence colocalisation on tethered DNA (SMADNE, LUMICKS C-trap); as a1 but on calf-intestinal alkaline phosphatase (CIP) treated nicked λ DNA with 8 observable non-ligatable (5'OH) nick sites, 10 pN tension
[2] = target: Cy3-labeled human histone nucleosome core particle reconstituted on the Widom 601 sequence (human); experiment: single-molecule fluorescence imaging on a tethered nucleosome (SMADNE, LUMICKS C-trap); Cy3-labeled undamaged 601 NCP ligated into 6 kb biotinylated DNA handles and tethered between optically trapped streptavidin beads, 4–5 pN tension; tagged proteins from nuclear extract; lifetimes from …; KD from koff, apparent kon and protein concentration
[3] = target: Halo 635-K421A LIG3α (catalytically dead); experiment: single-molecule fluorescence colocalisation on tethered DNA (SMADNE, LUMICKS C-trap); nuclear extract diluted 1:10 in 20mM HEPES pH 7.5, 150mM NaCl, 1mM DTT, 5% glycerol, 0.5mg/ml BSA, 1mM trolox; nicked λ DNA with eight observable ligatable nicks tethered between streptavidin beads, 10 pN tension; kymographs at 10 frames per second; proteins at 0.1–2 nM
[4] = target: Halo 635-ΔZnF LIG3α; experiment: as above
[5] = target: N-terminal tagged Halo635 LIG3α (DNA Ligase 3α, nuclear, wild type); experiment: as above
[6] = test system: T1, LIG3α WT (nuclear), P49916-3; experiment: single-molecule (SMADNE, optical tweezers); conditions: 20 mM HEPES pH 7.5, 150 mM NaCl, 1 mM DTT, 5% glycerol, 0.5 mg/ml BSA, 1 mM trolox, 25 °C, nuclear extract diluted 1:10, 10 pN (λ DNA) or 4-5 pN (NCP)
T1 sequence: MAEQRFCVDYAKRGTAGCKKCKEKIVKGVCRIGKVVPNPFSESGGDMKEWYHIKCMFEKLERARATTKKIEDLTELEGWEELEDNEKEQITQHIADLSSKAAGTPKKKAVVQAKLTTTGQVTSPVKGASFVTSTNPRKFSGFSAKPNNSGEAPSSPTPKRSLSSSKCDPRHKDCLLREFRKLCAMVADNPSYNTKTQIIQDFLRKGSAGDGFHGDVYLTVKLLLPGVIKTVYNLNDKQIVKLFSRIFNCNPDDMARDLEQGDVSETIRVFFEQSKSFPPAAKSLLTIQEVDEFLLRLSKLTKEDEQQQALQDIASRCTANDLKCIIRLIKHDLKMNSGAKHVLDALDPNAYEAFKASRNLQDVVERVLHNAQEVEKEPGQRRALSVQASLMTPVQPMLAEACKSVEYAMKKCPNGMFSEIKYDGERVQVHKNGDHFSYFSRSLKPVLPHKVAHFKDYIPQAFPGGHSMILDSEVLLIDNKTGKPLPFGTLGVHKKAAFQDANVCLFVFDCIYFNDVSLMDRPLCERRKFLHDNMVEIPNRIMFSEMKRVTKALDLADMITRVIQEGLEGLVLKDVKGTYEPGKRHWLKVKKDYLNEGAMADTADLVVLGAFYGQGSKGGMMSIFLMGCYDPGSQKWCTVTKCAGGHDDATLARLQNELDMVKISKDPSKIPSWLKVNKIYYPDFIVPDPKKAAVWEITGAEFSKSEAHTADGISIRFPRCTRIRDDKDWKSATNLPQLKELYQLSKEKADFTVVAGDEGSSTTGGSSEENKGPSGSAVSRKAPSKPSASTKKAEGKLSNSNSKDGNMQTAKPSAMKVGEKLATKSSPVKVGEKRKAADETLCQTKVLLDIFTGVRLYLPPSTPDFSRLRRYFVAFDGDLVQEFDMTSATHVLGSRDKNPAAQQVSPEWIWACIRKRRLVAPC

[7] = test system: T2, LIG3α ZnF-BRCT internal_change, P49916-3; experiment: single-molecule (SMADNE, optical tweezers); conditions: 20 mM HEPES pH 7.5, 150 mM NaCl, 1 mM DTT, 5% glycerol, 0.5 mg/ml BSA, 1 mM trolox, 25 °C, nuclear extract diluted 1:10, 10 pN (λ DNA) or 4-5 pN (NCP)
T2 sequence: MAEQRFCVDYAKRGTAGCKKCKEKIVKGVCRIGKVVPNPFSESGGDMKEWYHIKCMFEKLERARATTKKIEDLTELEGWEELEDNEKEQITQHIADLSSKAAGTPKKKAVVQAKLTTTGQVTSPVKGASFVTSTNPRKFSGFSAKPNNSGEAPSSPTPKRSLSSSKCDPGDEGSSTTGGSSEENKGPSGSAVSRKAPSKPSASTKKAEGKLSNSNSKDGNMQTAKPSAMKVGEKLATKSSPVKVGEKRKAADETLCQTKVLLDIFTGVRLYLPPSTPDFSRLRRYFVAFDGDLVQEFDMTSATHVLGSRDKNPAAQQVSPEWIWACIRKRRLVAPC

[8] = target: XRCC1-YFP (UniProt P18887); experiment: single-molecule (SMADNE, optical tweezers); conditions: 20 mM HEPES pH 7.5, 150 mM NaCl, 1 mM DTT, 5% glycerol, 0.5 mg/ml BSA, 1 mM trolox, 25 °C, nuclear extract diluted 1:10, 10 pN (λ DNA) or 4-5 pN (NCP)
Sequence of XRCC1-YFP (P18887 whole entry): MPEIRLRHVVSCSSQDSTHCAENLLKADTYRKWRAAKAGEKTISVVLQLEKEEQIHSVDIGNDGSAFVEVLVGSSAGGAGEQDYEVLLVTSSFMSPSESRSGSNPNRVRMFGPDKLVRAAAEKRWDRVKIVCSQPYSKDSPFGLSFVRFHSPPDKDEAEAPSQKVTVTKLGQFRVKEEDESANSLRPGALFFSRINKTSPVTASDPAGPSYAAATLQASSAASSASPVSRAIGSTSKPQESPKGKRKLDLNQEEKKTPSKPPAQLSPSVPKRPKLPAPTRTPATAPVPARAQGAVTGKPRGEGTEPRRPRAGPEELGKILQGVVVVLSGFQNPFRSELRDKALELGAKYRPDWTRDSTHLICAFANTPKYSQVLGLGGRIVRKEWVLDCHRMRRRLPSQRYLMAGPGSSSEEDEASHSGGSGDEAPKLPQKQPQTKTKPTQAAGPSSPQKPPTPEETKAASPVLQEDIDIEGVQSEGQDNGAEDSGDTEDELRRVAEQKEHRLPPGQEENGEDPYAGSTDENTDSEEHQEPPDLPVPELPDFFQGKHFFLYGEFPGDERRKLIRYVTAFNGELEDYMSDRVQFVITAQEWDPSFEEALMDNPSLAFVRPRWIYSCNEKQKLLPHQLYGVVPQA

[9] = target: Cy3-labeled human histone nucleosome core particle reconstituted on the Widom 601 sequence (human); experiment: single-molecule fluorescence imaging on a tethered nucleosome (SMADNE, LUMICKS C-trap); as a3 but 601 NCP with one non-ligatable nick (3'OH and 5'OH) at SHL 0, 5 pN tension
[10] = target: Cy3-labeled human histone nucleosome core particle reconstituted on the Widom 601 sequence (human); experiment: single-molecule fluorescence imaging on a tethered nucleosome (SMADNE, LUMICKS C-trap); as a3 but 601 NCP with one non-ligatable nick (3'OH and 5'OH) at SHL -2.5, 5 pN tension
[11] = target: Cy3-labeled human histone nucleosome core particle reconstituted on the Widom 601 sequence (human); experiment: single-molecule fluorescence imaging on a tethered nucleosome (SMADNE, LUMICKS C-trap); as a3 but 601 NCP with one non-ligatable nick (3'OH and 5'OH) at SHL -4.5, 5 pN tension
[12] = target: XRCC1-YFP (UniProt P18887); experiment: single-molecule (SMADNE, optical tweezers); conditions: nicks with 3'OH and 5'P; 20 mM HEPES pH 7.5, 150 mM NaCl, 1 mM DTT, 5% glycerol, 0.5 mg/ml BSA, 1 mM trolox, 25 °C; nuclear extract diluted 1:10; 10 pN (λ DNA) or 4-5 pN (NCP)
[13] = test system: LIG3α K421A; experiment: single-molecule (SMADNE, optical tweezers); conditions: nicks with 3'OH and 5'P; 20 mM HEPES pH 7.5, 150 mM NaCl, 1 mM DTT, 5% glycerol, 0.5 mg/ml BSA, 1 mM trolox, 25 °C; nuclear extract diluted 1:10; 10 pN (λ DNA) or 4-5 pN (NCP)
[14] = test system: T3, LIG3α ΔZnF, P49916-3; experiment: single-molecule (SMADNE, optical tweezers); conditions: nicks with 3'OH and 5'P; 20 mM HEPES pH 7.5, 150 mM NaCl, 1 mM DTT, 5% glycerol, 0.5 mg/ml BSA, 1 mM trolox, 25 °C; nuclear extract diluted 1:10; 10 pN (λ DNA) or 4-5 pN (NCP)
T3 sequence: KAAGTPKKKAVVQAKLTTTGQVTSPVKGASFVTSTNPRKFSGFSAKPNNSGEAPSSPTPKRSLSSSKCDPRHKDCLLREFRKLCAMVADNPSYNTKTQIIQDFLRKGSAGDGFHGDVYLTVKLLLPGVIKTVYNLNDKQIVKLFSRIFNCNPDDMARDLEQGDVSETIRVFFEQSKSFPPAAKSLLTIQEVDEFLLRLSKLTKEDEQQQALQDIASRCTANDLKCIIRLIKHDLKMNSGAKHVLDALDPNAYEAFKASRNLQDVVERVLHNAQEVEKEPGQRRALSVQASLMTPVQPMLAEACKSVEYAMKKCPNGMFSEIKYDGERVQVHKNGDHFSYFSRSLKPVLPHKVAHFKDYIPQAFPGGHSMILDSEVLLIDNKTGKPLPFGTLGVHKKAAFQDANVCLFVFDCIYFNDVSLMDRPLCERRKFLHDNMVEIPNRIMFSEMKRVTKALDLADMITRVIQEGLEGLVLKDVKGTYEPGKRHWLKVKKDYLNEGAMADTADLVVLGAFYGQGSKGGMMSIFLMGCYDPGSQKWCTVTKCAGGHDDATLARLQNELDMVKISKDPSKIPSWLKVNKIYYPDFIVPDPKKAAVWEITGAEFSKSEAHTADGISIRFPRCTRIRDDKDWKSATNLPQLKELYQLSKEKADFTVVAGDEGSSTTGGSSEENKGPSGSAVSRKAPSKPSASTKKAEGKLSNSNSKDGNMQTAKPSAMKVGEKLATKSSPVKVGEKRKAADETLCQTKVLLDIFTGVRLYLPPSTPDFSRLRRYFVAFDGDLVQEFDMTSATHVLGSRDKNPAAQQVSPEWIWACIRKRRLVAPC

[15] = 5'-phosphates removed (5'OH at nicks)

Sequence of C-terminal YFP tagged XRCC1 (X-ray cross complementing protein 1) (P18887 whole entry): as the sequence (P18887 whole entry) above

percent of binding events colocalized [1]: 9.7%
percent of binding events colocalized [3]: 7.6%
percent of binding events colocalized [4]: 16.3%
average lifetime of both proteins together on the DNA [5]: 0.7 s
percent of binding events colocalized [5]: 17.1%
Substance: C-terminal YFP tagged XRCC1 (X-ray cross complementing protein 1) (from UniProt P18887 1-633) (natural protein)
Kd [2]: 0.6 nM

Substance: CAACTGAGACCATGTACCCAGTTCGAATCGGATGTATATATCTGACACGTGCCTGGAGACTAGGGAGTAATCCCCTTGGCGGTTAAAACGCGGGGGACAGCGCGTACGTGCGTTTAAGCGGTGCTAGAGCTGTCTACGACCAATTGAGCGGCCTCGGCACCGGGATTCTCGATAACTCAGCAATAGTGGGTCTCA / ACCATGAGACCCACTATTGCTGAGTTATCGAGAATCCCGGTGCCGAGGCCGCTCAATTGGTCGTAGACAGCTCTAGCACCGCTTAAACGCACGTACGCGCTGTCCCCCGCGTTTTAACCGCCAAGGGGATTACTCCCTAGTCTCCAGGCACGTGTCAGATATATACATCCGATTCGAACTGGGTACATGGTCTCA [undamaged 601 NCP]
Kd ([6]; 5'-phosphate on both strands): 0.03 nM
Kd ([7]; 5'-phosphate on both strands): 1.1 nM
Kd ([8]; 5'-phosphate on both strands): 0.6 nM

Substance: CIP-treated nicked λ DNA, non-ligatable nicks
Kd [6, 15]: 1.64 nM
Kd [8, 15]: 17 nM

lifetime (Tau) [9]: 10.2 s
lifetime (Tau) [10]: 12.2 s
lifetime (Tau) [11]: 17.3 s
Substance: N-terminal tagged Halo635 LIG3α (DNA Ligase 3α, nuclear, wild type) (enzyme)
Kd [2]: 0.03 nM
lifetime [2]: 23.6 s
lifetime (Tau) [2]: 23.7 s

Substance: nicked λ DNA (Nt.BspQI), ligatable nicks
Kd [12]: 4 nM
Kd [13]: 0.4 nM
Kd ([6]; nicks with 3'OH and 5'P): 0.1 nM
Kd ([7]; nicks with 3'OH and 5'P): 3.2 nM
Kd [14]: 0.09 nM
Kd ([8]; nicks with 3'OH and 5'P): 1.5 nM

Substance: single non-ligatable nick, no NCP
Kd ([6]; non-ligatable nick): 2.5 nM
